According to patent US20240352110A1 (ROCHE DIAGNOSTICS OPERATIONS, published 2024):

Target: T1, Aβ42 (human, UniProt P05067 672-713)
T1 construct: range 672-713; In the Elecsys experiments it is the native Aβ42 of the plasma sample; also called Ab42; Abeta42
Test: SPR (Biacore 8K+), antibody captured, Aβ42 injected, 37° C., Langmuir 1:1 fit
Method: Measurements were performed using the BIAcore™ 8K+ instruments. Aβ-42 concentration series ranging from 1.2 nM to 900 nM were injected at […]. The association phase was monitored for 3 min, the dissociation phase between 5 min to 10 min at 37° C.
The measurements were performed using PBS-DT+, pH7.4 (10 mM phosphate buffer, 2.7 mM KCl, 137 mM NaCl. 5% DMSO, 0.05% Tween 20) as running buffer.
The kinetic rate constants and the dissociation equilibrium constants KD were calculated using a Langmuir 1:1 fit model according Scrubber Version 2.0.c.

T1 sequence (P05067 672-713 limits assumed, form in doubt): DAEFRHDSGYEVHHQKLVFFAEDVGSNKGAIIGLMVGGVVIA

Kd: 6.7 nM | MR (molar ratio): 0.7 | koff: 0.0253 s⁻¹ | kon: 3.8e+06 M⁻¹ s⁻¹ | t/2 diss (complex half-life): < 1 min
B1: Mouse anti Aβ-42 antibody 3.2.52 (IgG2b), expressed in hybridoma (antibody)
heavy: EVQLQQSGPELVKLGASVRVSCRTSGFTITEYTMHWVKQSHGKSLEWIGGINPITGGSRNNLKFKDKATLTGDKSSSTVYMDLRSLTSEGSTVNYCVRGRTMGPLDYWGQGTTLTVSSAKTTPPSVYPLAPGCGDTTGSSVTLGCLVKGYFPESVTVTWNSGSLSSSVHTFPALLQSGLYTMSSSVTVPSSTWPSQTVTCSVAHPASSTTVDKKLEPSGPISTINPCPPCKECHKCPAPNLEGGPSVFIFPPNIKDVLMISLTPKVTCVVVDVSEDDPDVRISWFVNNVEVHTAQTQTHREDYNSTIRVVSALPIQHQDWMSGKEFKCKVNNKDLPSPIERTISKIKGLVRAPQVYILPPPAEQLSRKDVSLTCLVVGFNPGDISVEWTSNGHTEENYKDTAPVLDSDGSYFIYSKLDIKTSKWEKTDSFSCNVRHEGLKNYYLKKTISRSPGK
light: not shown
notes: Full-length mouse IgG2b; Biotinylated when used as capture antibody in Elecsys assays; also called M-3.2.52; clone 3.2.52
